From the nanobody polyreactivity screen of Harvey et al. (2022)

Experiment: yeast display, Sf9 membrane polyspecificity reagent, FACS + sequencing; frameworks hold sequencing errors
Summary of the method: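 Nanobodies came from a synthetic yeast display library in Saccharomyces cerevisiae BJ5465, induced with galactose for 36–48 hours and stained for 1 hour at 4 °C with 10% biotinylated, detergent-solubilized Sf9 membrane reagent. Cells were enriched on streptavidin microbeads and then FACS-sorted, with low and high (top ~1%) gates set on anti-HA fluorescence for expression and streptavidin fluorescence for reagent binding. Each polyreactivity label reflects the gate a clone came from. Genes were amplified by colony PCR, sequenced by MiSeq 2 × 250 and filtered by CDR length.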

## QVQLVESGGGLVQAGGSLRLSCAASGLIFADNAMGWYRQAPGKEWELVASITLGDTSTYYADSVKGRFTISRYNAKNTVYLQMNSLKPEDTAVYYCAKDVYPSVSLYELPDDYWGQGTQVTVSS
  polyreactivity (PSR sort gate): low polyreactivity

## QVQIVESGGGLVQAGGSLRLSCAASGSIFDSNAMGWYRQAPGKERELVASITSDGDTYYADSVKGRFTISRDNAKNTVYLQMNSVKPEDTAVYYGAAYVPYSGLDYWGQGTQVTVSS
  polyreactivity (PSR sort gate): low polyreactivity

## QVQLVDSGGGLVPSGGSLRISCAASGRIFYPYAMGWYRQAPGKEREVVATITRTGSTYYADSVKGRFTISRDNAMNTVYLQMNSLKPEDTAVYYCNAGIYRPRVDYWGQGTQVTVSS
  polyreactivity (PSR sort gate): high polyreactivity

## QVQLVESGGGLVQAGGSLRLSCAASGSIFLVNAKGCYRQAPGKARELVAAITYGGDSTYYADSVKGRFTISRDNAKNTVYLQMNSLKPEDTAVYYCAADAWVGWHDEYDYWGQGTQVTVSS
  polyreactivity (PSR sort gate): low polyreactivity

## QVQLVESGGGLVQAGGSLRLSCAASGRTLGYYAMGWYRQAPGKERELVAAISRSGGSTYYADSVKGRFTISRDHAKNTVYLQMNSLKPEDTAVYYCAATYGPSRYRYDYWGQGTQVTVSS
  polyreactivity (PSR sort gate): high polyreactivity

## QVQLVESGGGLVQAGGSLRLSCAASGSTFLSNAMGWYRQAPGKERELVAAITTSGTSTFYADSVKGRFTISRDNAKNTVYLQMNSLKPEDTAVYCAKDYLPYLHFVAPSTGDYDYWGQGTQVTVSS
  polyreactivity (PSR sort gate): low polyreactivity

## QVQLVESGGGLVQAGGSLRLSCAASGRIFWFYTMGWYRQAPGKERELVARITTSGGSTYYADSVKGRFTISRDNAKNTVYLQMNSLKPEDTAVYYCAARPRDYHSFSLDYYYWGQGTQVTVSS
  polyreactivity (PSR sort gate): high polyreactivity

## QVQLVESGGGLVQAGGSLRLSCAASVSIFRWNTMGWYRQAPGKERELVASITFTGGRTYYADSVKGRFTISRDNAKNTVYLQMNSLKPEDTAVYYCNGLVVTYPKWKYDYWGQGTQVTVSS
  polyreactivity (PSR sort gate): high polyreactivity

## QVQLVESGGGLVQAGGSLRLSCAASGFIFSSYAMGWYRQAPGKERELVASTSRRAGRTYYADSVKGRFTISRDNAKNTVYVQMNSLKPEDSAVYYCAAEARVGYHFQILDYWGQGTQVTVSS
  polyreactivity (PSR sort gate): high polyreactivity

## QVQIVESGGGLVQAGGSLRLSCAASGSTFRLYVMGWYRQAPGKERELVARISSRGGSTYYADSVKGRFTISRDNAQNTVYLQMTSLKPEDTAVYYCAKDVDLDTWKYDYWGQGTKVTVSS
  polyreactivity (PSR sort gate): low polyreactivity

## QVQLVESGGGIVQAGGILRLTGAASVITNTSYAMGWYRQAPGKERELVAAISSSGVRTYYADSVKGRFTISRDNAKNTVYLQLNSLKPEDTAVYYCATRRRVLFGYDYWGQGTQVTVSS
  polyreactivity (PSR sort gate): high polyreactivity

## QVQLVESGGGLVQARGSLRLICAASGYIFRGYAMGWYRQAPGKERELVASISRTGVSTYYADSVKGRFTISRDNAKNTVYLQMNSLKPEDTAVYYCAADYYYWYYKSGYDYWGQGTQVTVSS
  polyreactivity (PSR sort gate): high polyreactivity

## QVQLVESGGGLVQAGGSLRLSCSASGLTFSYYAMGLYRQAPGTERELVAAITSSGGNTYYADSVKGRFTISRDNAKNTVYLQMNSLKPEDTAVYYCNAVVGLGYNYWGQGNQVTVSS
  polyreactivity (PSR sort gate): high polyreactivity

## QVQLVESGGGLDQAGGSLRLSCAASGLIFYAYTMGWYRQAPWKERELVAAINYSGGSTYYADSVKGRFTISRDNAKNTVYLQMNSLKPEDTAVYYCATRTGHWGQGTQVTVSS
  polyreactivity (PSR sort gate): low polyreactivity

## QVQLVESGGGLVQAGGSLRLSCAASGNIFSDNAMGWYIQAPGKERELVAAITSGGSTNYADSVKGRFTISLDNAKNTVYLQMISLKPEDNAVYYCAADISYRHFLFDYWGQGTQVTVSS
  polyreactivity (PSR sort gate): low polyreactivity

## QVQLVESGGGLVQAGGSLRLSWAASGSIFTLNAMGWYRQAPGKERELVAAIRWSGGSTYYADSVKGRFTISRDNAKNTGYLQRNRLKPEDTAVYYCAAKYPSDYYSPGFKYWGQGTQVTVSS
  polyreactivity (PSR sort gate): high polyreactivity

## QVHLVESGGGLVQAGGSLRLSCAASGSIYTRYAMGWYRQAPGKERDLVAAITVSGGSTYYADSVKGRFTISRDNAKNTVYLQMNSLKPEDTAVYYCARRAWSGPGYFKAIRRFDYWGQGTQVTVSS
  polyreactivity (PSR sort gate): low polyreactivity

## QVQLVESGGGLVQAGGSLRLSCAASGSTFWRNAMGWYRQAPGKERELVAAISRGGSTNYADSVKGRFTISRDNAKNTVYLQMNSLKPEDTAVYYCAARYYYRYNYWGQGTQVTVSS
  polyreactivity (PSR sort gate): high polyreactivity

## QVQLVESGGGLVQAGGSLRLSCAPSGSTSFSNDMGWYRQAPGKERELVAAIRSGGSTDYADSVKGRFTISRDNAKNTVYLQMNSLKPEDTEVYYFNATQYDAVYPGYARLYDYWGQGTQVTVSS
  polyreactivity (PSR sort gate): low polyreactivity

## QVQLVESGGGLVQAGGSLRLSCAASGSTLLYYAMGWYRQAPGKERELVAAISSTGSTNYADSVKGRFTISRDNAKNTVYLQMKSLKPEDTAVYYCAADYSVPTSQAYDYWGQGTQVTVSS
  polyreactivity (PSR sort gate): low polyreactivity

## QVQLVESGGGLVQAGGSLRLSCAASGRTFVVNAMGWYRQAPGKERELVAAITRRGGITYYADSVKGRFTISRDNAKNTVYLQMNSLKPEDTAVYYCAADRSYYPDTRTTYGYNYWGQGTQVTVSS
  polyreactivity (PSR sort gate): low polyreactivity

## QVQLVESGGGLVQAGGSLRLSCAASGSIFPPYAMGWYRHAPGKERELVATITIRGGSTYYADSVKGRFTISRDNAKNTVYLQMNSLKPEDTAVYYCAADYSKYYRRYYYWGQGTQVTVSS
  polyreactivity (PSR sort gate): high polyreactivity

## QVQLVESGGGLVQAGGSLRLSCAASGSTFPTYAMGWYRQAPGKESELVAAISFSGARTYYADSVKGRFTISRDNAKNTVYLQMNSLKPEDTAVYYCAKDSSYSRRYEYWGQGTQVTVSS
  polyreactivity (PSR sort gate): high polyreactivity

## QVQLVESGGGLVQAGGSLRLSFAASGSTFNIYTMGWYRQAPGKEWELVARITFSGGSTYYADSVKGRFTISRDYAKNTVYLQMNSLKPEDTAVYYCAVRVYRVDHFCYDYWGQGTQVTVSS
  polyreactivity (PSR sort gate): high polyreactivity

## QVQLVESGGGLVQAGGSLRLSCAASGITLAWYAMGWYRQAPGKERELVAAINSGGSTYYADSVKGRFTISRDNAKNTVYLQMNSLKPEDTAVYYCKTDDDSSSTGYYSWGQGTQVTVSS
  polyreactivity (PSR sort gate): low polyreactivity

## QVQLVESGGGLVQAGGSLRLSCAASGRIFRLYAMGWYRQAPGKERELVAAITSSGSSTYYADSVKGRFTISRDNAKNTVSLQMNSLKPEDTAVYYCNARYTYPYHFGYWGQGTQVTVSS
  polyreactivity (PSR sort gate): high polyreactivity

## QVQLVESGGGLVQAGGSLRLSCAASGITLYYYTMGWYRQAPGKERELVAAISGSGGSTYYADSVKGRFTISRDNAKNTVYLQMNSLKPEDTAVYYCNTARSLKNHFYKYDYWGQGTQVTVSS
  polyreactivity (PSR sort gate): high polyreactivity

## QVQLVESGGGLVQAGGSLRLSCAASGFIFSYYAMGWYRQAPGKERELVAAITSGGSTNYADSVKGRFTISRDNAKNTVYLQMNSLKPEDTAVFYCATAGSGGIGLFYSYDYWGQGTQVTVSS
  polyreactivity (PSR sort gate): low polyreactivity

## QVQLVESGGGLLQAGGSLRLSCAASGFIFDGYAMGWYRQAPGKERELVAAISSVGSTYYADSVKGRFTISRDNAKKTVYLQMNSLKPEDTAVYYCAAVRFYTYNYWGQGTQVTVSS
  polyreactivity (PSR sort gate): low polyreactivity

## QVQLVESGGGLVQAGGSLRLSCAASGLIFQYYAMGWYRQAPGKERELVAGITSGANTNYADSVKGRFTISRDNAKNTVYLQMNSLKPEDTAVYYCATYVSSPYSDIWFKDFDYWGQGTQVTVSS
  polyreactivity (PSR sort gate): low polyreactivity

## QVQLVESGGGLVQAGCSLRLSCSASGSIFRNNAMGWYRPAHGKERELVAAITSTGTGTYYADSLKGRFTISRDNAKNTVYLQMNSLKPEDTAVYYCSVDDDFEFVYWGQGTQVTVSS
  polyreactivity (PSR sort gate): low polyreactivity

## QVQLVDSGGGLVQAGGSLRLSCAASGSIFKTYAMGWYRQAPGKERELVATNTRRTGSTYYADSVKGRFTISRDNAMNSVYLQMNSLKPEDPAVYYCAAELYPSWSHTVFHGYNYWGQGTQVTVSS
  polyreactivity (PSR sort gate): high polyreactivity
